From patent US7521540B2, “CYR61 compositions and methods” (Munin Corporation, priority 1996, dated 2009)

B1: DM: Cyr61 double mutant with both heparin-binding motifs mutated (SEQ ID NO:30 region) (protein)
chain: TCPAACHCPLEAPKCAPGVGLVRDGCGCCKVCAKQLNEDCSKTQPCDHTKGLECNFGASSTALKGICRAQSEGRPCEYNSRIYQNGESFQPNCKHQCTCIDGAVGCIPLCPQELSLPNLGCPNPRLVKVSGQCCEEWVCDEDSIKDSLDDQDDLLGLDASEVELTRNNELIAIGKGSSLKRLPVFGTEPRVLFNPLHAHGQKCIVQTTSWSQCSKSCGTGISTRVTNDNPECRLVKETRICEVRPCGQPVYSSSLKAGAACSATAKSPEPVRFTYAGCSSVAAYAPKYCGCVDGRCCTPLQTRTVKMRFRCEDGEMFSKNVMMIQSCKCNYNCPHPNEASFRLYSLFNDIHKFRD
B2: human Cyr61: Human Cyr61, 381 amino acids, SEQ ID NO:4, expressed in the baculovirus system (protein, listed as Homo sapiens)
chain: MSSRIARALALVVTLLHLTRLALSTCPAACHCPLEAPKCAPGVGLVRDGCGCCKVCAKQLNEDCSKTQPCDHTKGLECNFGASSTALKGICRAQSEGRPCEYNSRIYQNGESFQPNCQHQCTCIDGAVGCIPLCPQELSLPNLGCPNPRLVKVTGQCCEEWVCDEDSIKDPMEDQDGLLGKELGFDASEVELTRNNELIAVGKGRSLKRLPVFGMEPRILYNPLQGQKCIVQTTSWSQCSKTCGTGISTRVTNDNPECRLVKETRICEVRPCGQPVYSSLKKGKKCSKTKKSPEPVRFTYAGCLSVKKYRPKYCGSCVDGRCCTPQLTRTVKMRFRCEDGETFSKNVMMIQSCKCNYNCPHANEAAFPFYRLFNDIHKFRD
B3: CTGF: Human ortholog of Fisp12, SEQ ID NO:8 (protein, listed as Homo sapiens)
chain: MTAASMGPVRVAFVVLLALCSRPAVGQNCSGPCRCPDEPAPRCPAGVSLVLDGCGCCRVCAKQLGELCTERDPCDPHKGLFCDFGSPANRKIGVCTAKDGAPCIFGGTVYRSGESFQSSCKYQCTCLDGAVGCMPLCSMDVRLPSPDCPFPRRVKLPGKCCEEWVCDEPKDQTVVGPALAAYRLEDTFGPDPTMIRANCLVQTTEWSACSKTCGMGISTRVTNDNASCRLEKQSRLCMVRPCEADLEENIKKGKKCIRTPKISKPIKFELSGCTSMKTYRAKFCGVCTDGRCCTPHRTTTLPVEFKCPDGEVMKKNMMFIKTCACHYNCPGDNDIFESLYYRKMYGDMA

Legend:
[1] = system: primary human foreskin fibroblasts; assay: Cyr61-regulated gene expression (multi-gene blot, Northern); assay type: cell-based
Procedure: Purified, soluble, recombinant Cyr61 protein was added to cultures of primary human foreskin fibroblasts for 24 hours. From these cells, mRNA was isolated for preparation of probes to hybridize to a multi-gene blot (Clontech Atlas Human Array 1.2 cat no. 7850-1) containing about 650 genes. The levels of expression of these genes in Cyr61-treated cells were compared to that of control cells. […] These findings have been confirmed by Northern blot analysis showing increases or decreases of the mRNAs in question in Cyr61-treated cells. A time course of expression changes has been established. In particular, by 6 hours after its addition, Cyr61 has induced expression of VEGF-A mRNA and the induction is still evident at 12 and 24 hours post-addition. Also at 12 and 24 hours post-addition, Cyr61 has induced expression of VEGF-A polypeptide. With respect to VEGF-C, induction of mRNA is clearly evident 12 hours after addition of Cyr61 and the induction persists at least through 24 hours post-addition. Cyr61 is expected to induce the expression of VEGF-C polypeptide with similar kinetics.

[2] = Heparin binding assay (salt elution from heparin-Sepharose/agarose)
HUVE cells [3] = assay: HUVE cell adhesion to wild-type and double-mutant Cyr61; assay type: cell-based, human
Procedure: Immobilized cells were stained with methylene blue and absorbances (A620) were recorded. relative binding capacities (binding of cells not exposed to a pre-incubation compound defined as 100%) are presented in Table III.

[4] = system: 1064SK primary human foreskin fibroblasts; assay: Fibroblast adhesion assay (methylene blue, A620); assay type: cell-based; conditions: protein coated on wells
Procedure: The ability of Cyr61 to mediate cell adhesion in normal fibroblasts was investigated. Microtiter wells were coated with purified recombinant Cyr61 protein, and 1064SK primary human foreskin fibroblasts were allowed to adhere under serum-free conditions. […] 50 μl cell suspensions were plated on microtiter wells coated with varying concentrations (0.5-5.0 μg/ml) of Cyr61 protein. After incubation at 37° C. for 30 minutes, adherent cells were fixed and stained with methylene blue.
In another experiment, microtiter wells were coated with either BSA, Cyr61 (2 μg/ml), or vitronectin (VN; 0.5 μg/ml) and blocked with affinity-purified anti-Cyr61 antibodies for one hour at 37° C. before 1064SK cells were plated.
The effects of divalent cations in cell adhesion to Cyr61 was also investigated. […] Data are means from triplicate determinations. […] Inhibition by Ca^2+ is characteristic of adhesion through some members of the β1 family of integrins, including receptors that bind type I collagen, laminin, and vitronectin (integrins α2β1, α6β1, and αVβ1) in fibroblasts, as well as the lymphocyte-specific integrin αLβ2.
The effects of RGD peptides on Cyr61-mediated fibroblast binding was tested by plating cells in wells coated with Cyr61 (2 μg/ml). Type I collagen (2 μg/ml) or vitronectin (0.5 μg/ml), 2 mM GRGDSP or GRGESP peptide was then added.
Cells were also pre-incubated with 40 μg/ml monoclonal antibodies against the integrin α5 or the integrin αV subunits at room temperature for 30 minutes, then plated on wells coated with Cyr61 (2 μg/ml), vitronectin (0.5 μg/ml) or fibronectin (FN, 1 μg/ml). […] The data are means, representative of three experiments.
The 1064 SK cells were also analyzed using the monoclonal antibody JBIA, which binds the β1 integrin subunit. Cells were pre-incubated with the antibody (50 μg/ml) before plating on microtiter wells coated with Cyr61 (2 μg/ml), Type I collagen (2 μg/ml), or vitronectin (0.5 μg/ml). […] Data are means, representative of three experiments.
To identify the specific β1 integrin that mediates fibroblast adhesion to Cyr61, the inhibitory effects of function-blocking monoclonal antibodies were tested against various integrin α subunits. […] The data are means, representative of at least three experiments.

[5] = system: 1064SK human skin fibroblasts; assay: Human skin fibroblast migration; assay type: cell-based; conditions: 1064SK cells
HUVE cells [6] = assay: HUVE cell adhesion to hCyr61-coated plates; assay type: cell-based, human; conditions: serum-free conditions
Procedure: Immunological plates (96-well ProBind assay plates, Falcon) were coated with 0.1-30 μg/ml hCyr61, fibronectin (Gibco BRL) or vitronectin (Gibco BRL) in phosphate-buffered saline (PBS) containing 0.1% protease-free BSA (Sigma) for 16 hrs at 4° C. The wells were blocked with 1% BSA in PBS for 1 hr at room temperature and washed with PBS. […] In some experiments, fbs was added to 5-10%. Also, in experiments involving vitronectin-coateci plates, endogenous vitronectin was removed from fbs by immunoaffinity chromatography using bovine polyclonal anti-vitronectin antibodies (Gibco). Norris et al., J. Cell Sci. 95:255-262 (1990). Cells were plated at 10^4 cells/well. After 2 hours, cells were fixed with 4% paraformaldehyde, stained with methylene blue and quantified as described. Oliver et al., J. Cell Sci. 92:513-518 (1989).
The ability of HUVE cells to adhere to hCyr61-coated plates in the presence of mock-immunodepleted fbs and serum immunodepleted with anti-bovine vitronectin antibodies were compared. […] The addition of vitronectin (30 μg/ml) to vitronectin-immunodepleted serum restored the ability of HUVE cells to adhere and spread on hCyr61-coated plates to the same level observed when whole serum was used in the cell attachment assay. […]
Additionally, HUVE cell attachment and spreading in the presence of an increasing quantity of vitronectin was examined. […]

NIH 3T3 cells = conditions: U.S. Pat. No. 5,408,040; cited from earlier work
cornea = assay: Cornea assay for angiogenic factors; assay type: in vivo, rat; conditions: rat, in vivo
Excerpt: Another assay for modulators of angiogenesis is an in vivo assay for assessing the effect of a suspected modulator in the presence of an ECM signaling molecule-related biomaterial, such as Cyr61, on angiogenesis is the Cornea Assay. The Cornea Assay takes advantage of the absence of blood vessels in the cornea, which in the presence of an angiogenic factor, results in the detectable development of capillaries extending from the sclera into the cornea. Friedlander et al., Science 270:1500-1502 (1995). This ingrowth of new blood vessels from the sclera can be microscopically monitored. Further, the visually determined rate of migration can be used to assess changes in the rate of angiogenesis. These cornea assays may be performed using a wide variety of animal models. Preferably, the cornea assays are performed using rats. By way of example, an assay for suspected modulators of Cyr61 using this assay is disclosed. To perform this assay, Cyr61 is initially titrated using primary capillary endothelial cells to determine effective concentrations of Cyr61. Subsequently, Cyr61, in the presence or absence of a suspected modulator, is surgically implanted into the corneas of mammalian laboratory animals, e.g., rabbits or rats. In a preferred embodiment, Cyr61 (or Cyr61 and a suspected modulator) is embedded in a biocompatible matrix, using matrix materials and techniques that are standard in the art. Subsequently, eyes containing implants are visually observed for growth of the readily visible blood vessels within the eye. Control implantations may consist of physiologically balanced buffers embedded in the same type of matrix and implanted into eyes of the same type of laboratory animal receiving the Cyr61-containing implants.
Although rats of various sizes can be used in the cornea assay, a preferred size for the rats is 150-200 g/animal. Anesthesia is induced with Methoxyflurane and is maintained for 40-60 minutes with sodium pentobarbital (50 mg/kg, delivered intraperitoneally). The eyes are gently opened and secured in place by clamping the upper eyelid with a non-traumatic hemostat. Two drops of sterile proparacaine hydrochloride (0.5%) are then placed on each eye as to effect local anesthesia. Using a suitable surgical blade such as a No. 11 Bard Parker blade, an approximately 1.5 mm incision is made approximately 1 mm from the center of the cornea. […] Once the cornea pocket is made, the spatula is removed and the distance between the limbus and base of the pocket is measured to make sure the separation is at least about 1 mm. […]
Following surgery, animals are examined daily for seven days with the aid of a stereomicroscope to check for inflammation and responses. […] During this seven day period, animals are monitored for implant position and corneal exudate. […]

Molecule	induction of VEGF, MMP1, MMP3 etc. [1]	heparin binding [2]	NaCl concentration of elution from heparin-Sepharose/agarose ([2]; increasing salt concentrations)	HUVEC binding (HUVE cells [3])	support of 1064SK fibroblast adhesion [4]	migration of human fibroblasts [5]	HUVE cell attachment and spreading (HUVE cells [6])	migration of NIH 3T3 and BASM cells (reported) (NIH 3T3 cells)	angiogenic effect in cornea assay (cornea)
B1	do not induce the expression of the above-referenced genes	severely deficient in heparin binding	up to 0.25 M NaCl	still mediated HUVEC binding	unable to support 1064SK fibroblast adhesion at any concentration tested				
B2		quantitatively bound to heparin-agarose				induced migration of the human fibroblast cells	mediated cell attachment but not spreading		
B3								reported to induce the migration	confirm the effect of angiogenic factors
